# Publication PMC6416337
# Biological target: 14-3-3λ (UniProt P48349)
# Test: GST pull-down, anti-14-3-3 blot
# Settings: reference: SOS2-JD without PKS5; sites S294
substance,measurement,value
SOS2 junction domain (SOS2-JD) (from UniProt Q9LDI3) SOS2-JD incubated with PKS5 and ATP,binding against the reference,stronger
